This is an account of results in article PMC5379943 (The Journal of Cell Biology, 2017).

In this experiment the target is T1, His-PLEKHM1 (1–300) (UniProt Q9Y4G2 1-300).
T1 construct: PLEKHM1, residues 1–300; also called His-tagged PLEKHM1 (1–300); source: purified
The experiment is described as follows: pull-down; competition: GST-Arl8b as bait incubated with His-PLEKHM1 (1–300) and increasing concentrations of MBP-SKIP (1–300); immunoblot. The note with it: both partners purified. (In general: A western blot detects proteins with antibodies after separation by electrophoresis.)

B1: GST-Arl8b (natural protein, UniProt Q9NVJ2 1-186, looked up)
chain: MLALISRLLDWFRSLFWKEEMELTLVGLQYSGKTTFVNVIASGQFSEDMIPTVGFNMRKVTKGNVTIKIWDIGGQPRFRSMWERYCRGVNAIVYMIDAADREKIEASRNELHNLLDKPQLQGIPVLVLGNKRDLPNALDEKQLIEKMNLSAIQDREICCYSISCKEKDNIDITLQWLIQHSKSRRS
notes: Arl8b small GTPase; source: E. coli BL21, purified on glutathione resin
For the molecule B1, the binding result is “binds”.
